Measured values reported in article PMC8626312, “In vitro assembly complex formation of TRAIP CC and RAP 80 zinc finger motif revealed by our study” (Saudi Journal of Biological Sciences, 2021).

B2: TRAIP CC (66–164 aa) (domain or fragment, human, UniProt Q9BWF2 66-164, looked up)
chain: LAQEEENVLDAEFLKNELDNVRAQLSQKDKEKRDSQVIIDTLRDTLEERNATVVSLQQALGKAEMLCSTLKKQMKYLEQQQDETKQAQEEARRLRSKMK
notes: The abstract prints 64–166 for this construct; Calculated mass with the C-terminal His tag is 12325 Da; also called TRAIP coiled-coil domain; TRAIP-1; source: E. coli BL21 (DE3), purified (Ni-NTA, SEC); not shown: His6, C-terminal, kept

Columns and labels:
[1] = molecular target: the molecule itself; experiment: SEC; each protein alone on Superdex 200 HR 10/30, 20 mM Tris-HCl pH 8.0, 150 mM NaCl; oligomeric state from the elution volume
TRAIP CC (66–164 aa) = molecular target: B2; experiment: SEC; purified proteins mixed in a molar ratio of approximately 1:1, pre-incubated 30 min at 4 °C, Superdex 200 HR 10/30, 20 mM Tris-HCl pH 8.0, 150 mM NaCl; fractions on SDS-PAGE; details: both partners purified
[2] = molecular target: the molecule itself; experiment: SEC-MALS; TRAIP CC alone on a size exclusion column HR 10/30, 20 mM Tris-HCl pH 8, 150 mM NaCl; three-angle light scattering and refractive index detectors (Wyatt mini-DAWN TREOS), ASTRA

B1: RAP80 zinc finger (490–584 aa) (domain or fragment, human, UniProt Q96RL1 490-584, looked up)
chain: KEVAISTFSSSNQVSCPLCDQCFPPTKIERHAMYCNGLMEEDTVLTRRQKEAKTKSDSGTAAQTSLDIDKNEKCYLCKSLVPFREYQCHVDSCLQ
notes: RAP80 (receptor-associated protein 80), human, 719 aa, zinc finger motif, residues 490(K)-584(Q), 95 aa; the methods name pET24a with a C-terminal His6; also called RAP80 Zn finger motif; RAP80-1; source: E. coli BL21 (DE3), purified (Ni-NTA, SEC)
[1]
  stoichiometry N: 3
TRAIP CC (66–164 aa)
  binding result: binds

## B2
[2]
  stoichiometry N: 3

B3: TRAIP RINGCC (1-157aa) (domain or fragment, human, UniProt Q9BWF2 1-157, looked up)
chain: MPIRALCTICSDFFDHSRDVAAIHCGHTFHLQCLIQWFETAPSRTCPQCRIQVGKRTIINKLFFDLAQEEENVLDAEFLKNELDNVRAQLSQKDKEKRDSQVIIDTLRDTLEERNATVVSLQQALGKAEMLCSTLKKQMKYLEQQQDETKQAQEEAR
notes: the methods name pET24a with a C-terminal His6; One sentence of the results prints 1–517; also called TRAIP-5; TRAIP RINGCC (1–517); source: E. coli BL21 (DE3), purified (Ni-NTA, SEC)
[1]
  binding result: binds
